Data reported in patent US20130216530A1, “Methods for optimizing biological response modifier therapy using therapeutic drug monitoring of immunosuppressants” (Exagen Diagnostics, Inc., priority 2012, published 2013).

Key:
Format in all cases: in vivo, human
[1] = RBC MTXPG3 levels in RA patients measured by liquid chromatography
Protocol: (§1) Adult RA patients receiving weekly MTX with infliximab for more than three months were enrolled in a cross sectional study. Blood was collected at trough before the infusion of infliximab. Red blood cell (RBC) MTXPGs were measured using liquid chromatography while circulating levels of infliximab were measured using a cell based assay. ATIs were measured using enzyme immunoassays. Statistical analysis consisted of regression analyses and Wilcoxon tests.
(§2) The study was cross sectional study in adult RA patients at three study sites (Brigham and Women's, Boston, Mass.; The Center for Rheumatology, Albany, N.Y.; and Altoona Center for Clinical Research, Altoona Pa.). All RA patients (according to the 2010 ACR criteria for RA)^8 enrolled had received a stable dose of MTX (for at least 4 months) in combination with infliximab for at least 3 months. Clinical parameters and demographic data were collected at the time of a single study visit. The study was approved by an independent ethic committee and informed consent was collected from all patients. Blood was drawn in EDTA containing tube and one SST tube at the time of the study visit. The blood was drawn just prior to the infliximab infusion (trough) and shipped overnight using refrigerated transportation kits. Disease activity was estimated using the clinical disease activity index (CDAI). […] RBC MTXPG3 were measured using a liquid chromatography developed and validated in our laboratory^9. Quantification limit was 5 nmol/L RBCs. Circulating levels of infliximab in serum were measured by Biomonitor (Copenhagen, DK) using a cell based assay consisting of erythroleukemic K562 cells transfected with a NFKB regulated firefly luciferase reporter-gene construct^10. Antibodies to infliximab (ATIs) were measured using a proprietary enzyme immunoassay technique (Biomonitor, Copenhagen, Denmark). The cutoff for positive ATI was 0.9 U/L. Anti-citrullinated peptide auto-antibodies levels (Anti-MCV) were measured using ELISA (Orgentec Diagnostika, Mainz, Germany). […]

[2] = Antibodies to infliximab (ATIs) in RA patients by enzyme immunoassay, cutoff 0.9 U/L
Protocol: as §1
The study was cross sectional study in adult RA patients at three study sites (Brigham and Women's, Boston, Mass.; The Center for Rheumatology, Albany, N.Y.; and Altoona Center for Clinical Research, Altoona Pa.). All RA patients (according to the 2010 ACR criteria for RA)^8 enrolled had received a stable dose of MTX (for at least 4 months) in combination with infliximab for at least 3 months. Clinical parameters and demographic data were collected at the time of a single study visit. The study was approved by an independent ethic committee and informed consent was collected from all patients. Blood was drawn in EDTA containing tube and one SST tube at the time of the study visit. The blood was drawn just prior to the infliximab infusion (trough) and shipped overnight using refrigerated transportation kits. Disease activity was estimated using the clinical disease activity index (CDAI). Upon receipt of blood specimen, erythrocytes and serum were isolated and stored frozen at −80° C. RBC MTXPG3 were measured using a liquid chromatography developed and validated in our laboratory^9. Quantification limit was 5 nmol/L RBCs. Circulating levels of infliximab in serum were measured by Biomonitor (Copenhagen, DK) using a cell based assay consisting of erythroleukemic K562 cells transfected with a NFKB regulated firefly luciferase reporter-gene construct^10. Antibodies to infliximab (ATIs) were measured using a proprietary enzyme immunoassay technique (Biomonitor, Copenhagen, Denmark). The cutoff for positive ATI was 0.9 U/L. Anti-citrullinated peptide auto-antibodies levels (Anti-MCV) were measured using ELISA (Orgentec Diagnostika, Mainz, Germany). Statistical analysis consists of multivariate logistic/linear regression and Wilcoxon tests as appropriate.

[3] = Circulating trough infliximab levels in serum of RA patients on MTX plus infliximab (K562 NFKB-luciferase cell based assay)
Protocol: as §1, §2

Compound	median RBC MTXPG3, patients without ATI ([1]; ATI negative patients) [nmol/L]	median RBC MTXPG3, patients having ATIs ([1]; ATI positive patients) [nmol/L]	median RBC MTXPG3 levels ([1]; all 61 RA patients on weekly MTX, red blood cells) [nmol/L]	patients with ATIs detected ([2]; 11 of 61 patients, ATI>0.9 U/L) [%]	patients testing positive for ATI ([2]; 12 patients with RBC MTXPG3 above 50 nmol/L)	fold lower likelihood of having ATI (odds ratio) ([2]; RBC MTXPG3 levels above 25 nmol/L, logistic regression, CI95%: 1.1-20.8) [fold]	number of patients with ATI ([2]; of 4 patients with MTXPG3<5 nmol/L)	patients presenting with ATI ([2]; patients with RBC MTXPG3 below 5 nmol/L (3 out of 4)) [%]	median infliximab levels, patients without ATI ([3]; ATI negative patients, trough) [µg/mL]	median infliximab levels, patients with ATIs ([3]; ATI positive patients, trough) [µg/mL]	median trough infliximab levels ([3]; all 61 RA patients, MTX with infliximab, serum at trough before infusion) [µg/mL]
CN(Cc1cnc2nc(N)nc(N)c2n1)c1ccc(C(=O)N[C@@H](CCC(=O)N[C@@H](CCC(=O)N[C@@H](CCC(=O)O)C(=O)O)C(=O)O)C(=O)O)cc1 [MTXPG3]	30	22	28	–	–	–	–	–	–	–	–
infliximab	–	–	–	18	None and none	4.7	3	75	5.0	< 0.5	3.3
